{"source": "paper PMC5352143", "about": "“Lactoferrin binding protein B – a bi-functional bacterial receptor protein” (PLoS Pathogens, 2017)", "binders": {"B1": {"name": "LbpB C-terminal lobe with N-terminal biotin acceptor peptide, fused to MBP (BLI construct) (domain or fragment)", "chain": "ENAADTKPALSSGKHTKILDSLKISVDEASDKNPREFAISSMPDFGHPDKLLVEGREIPLVNKEQTIELADGRKTTIRTCCDFLTYVKIGRMQTERPAAKPKAQDEERDEEDTGVDSVEEGEDEIDDEEGTEDAAVKDEGSEEDEAVEGEDEAEEPEEESPTEEGGSGSDGILPAPEAPKGRNIDLFLKGIRTAETDIPKTGEAHYTGTWEARIGKPIQWDNQADKEAAKAVFTVDFGKKSISGTLTEENGVEPAFHIENGKIEGNGFYATARTRENGINLSGNGSTDPKTFQASNLRVEGGFYGPQAEELGGIIFNNDGKSLGITEGTENKVDVEAEVDAEVDVGKQLESEVKHQFGVVFGAKKDMQEVEK", "modifications": "biotin on the biotin acceptor peptide"}}, "target": "T1, holo human lactoferrin (iron-loaded hLf) (human)", "T1 construct": "human lactoferrin, iron-loaded (holo) form; Iron-loaded form; also called holo-hLf; holo-Lf; source: bought: Agennix (named for XL-MS)", "assay": "BLI; Octet RED 96; biotinylated MBP-LbpB constructs loaded from crude E. coli extracts on streptavidin sensors; holo-hLf 10-800 nM in 1 X PBS pH 7.4, 0.002% Tween-20, 0.1 mg/mL BSA; steady-state fit, apparent KD", "details": "one partner purified"}
{"binder": "B1", "values": [{"measurement": "Kd", "value": "279 ± 15", "unit": "nM"}]}
